{"source": "paper PMC6017339", "about": "“A Turn-on Fluorescence Sensor for Heparin Detection Based on a Release of Taiwan Cobra Cardiotoxin from a DNA Aptamer or Adenosine-Based Molecular Beacon”", "target": "T1, cardiotoxin 3 (CTX3) (Naja naja atra (Taiwan cobra), UniProt P60301 22-81)", "T1 sequence": "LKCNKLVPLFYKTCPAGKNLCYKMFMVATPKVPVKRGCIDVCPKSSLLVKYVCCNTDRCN", "experiment": "fluorescence quenching titration; 20 nM aptamer; >80% quenching, saturated at 400 nM CTX3; 10 mM HEPES pH 8.0, 30 C, 5 min incubation, no added salt stated; 20 nM aptamer or 10 nM MB", "conditions": "protein: native; label: 5'-FAM; 3'-DABCYL", "data": [{"binder": "GCGAGGTGTTCGAGAGTTAGGGGCGACATGACCAAACGTT (ssDNA)", "note": "[DNA aptamer against CTX3]", "values": [{"measurement": "binding result", "value": "binds"}]}]}
